Source: PMC6021487

Target: IL-33 (UniProt O95760)
Assay: co-immunoprecipitation with anti-HA, immunoblot
Details: reference: wild type PTRF; sites Y158

- binding against the reference: stronger
Substance: polymerase I and transcript release factor (PTRF, Cavin-1) (from UniProt O54724) PTRF Y158F
